Data reported in article PMC8490154, “Mass-sensitive particle tracking to elucidate the membrane-associated MinDE reaction cycle” (Nature Methods, 2021).
Values joined by “and” are separate entries in the source; they are usually repeats but may differ in a detail not shown here. Equal entries are not always repeated. Where two headings read alike, the source gives them in different places. One block for each molecule: values may come before it.

Tests used:
[1] = target: MinD (Escherichia coli) (UniProt P0AEZ3); assay: mass-sensitive particle tracking (MSPT, iSCAT) on a supported lipid bilayer; MinD or MinD D40A alone, 50-200 nM, 0.5 mM ATP, Min buffer, SLB of 70 mol% DOPC / 30 mol% DOPG, room temperature (23 ± 2 °C); particle densities 0.03-0.8 µm^-2; monomers (33 kDa) not quantitatively detectable
[2] = target: MinD (Escherichia coli) (UniProt P0AEZ3); assay: as above; remark: listed apart in the source
[3] = target: the molecule itself; assay: as above
[4] = target: the molecule itself; assay: mass-sensitive particle tracking (MSPT, iSCAT) on a supported lipid bilayer; co-reconstitution of equimolar MinD and MinE, 50-200 nM each, 0.5 mM ATP, Min buffer, SLB of 70 mol% DOPC / 30 mol% DOPG, room temperature; particle densities 0.1-0.8 µm^-2

- stoichiometry N [1]: 2
- stoichiometry N [2]: 3 and 4
Molecule: MinD (from UniProt P0AEZ3 1-270) (natural protein)

B1: MinD D40A (natural protein, Escherichia coli, UniProt P0AEZ3 1-270, looked up)
chain: MARIIVVTSGKGGVGKTTSSAAIATGLAQKGKKTVVIDFAIGLRNLDLIMGCERRVVYDFVNVIQGDATLNQALIKDKRTENLYILPASQTRDKDALTREGVAKVLDDLKAMDFEFIVCDSPAGIETGALMALYFADEAIITTNPEVSSVRDSDRILGILASKSRRAENGEEPIKEHLLLTRYNPGRVSRGDMLSMEDVLEILRIKLVGVIPEDQSVLRASNQGEPVILDINADAGKAYADTVERLLGEERPFRFIEEEKKGFLKRLFGG
notes: ATPase MinD of the Escherichia coli Min system with D40A (impaired ATP hydrolysis); A purification tag is probably present (surmise); also called D40A mutant; MinD mutant (D40A)
- stoichiometry N [3]: 2 and 4

B2: MinE (natural protein, Escherichia coli, UniProt P0A734 1-88, looked up)
chain: MALLDFFLSRKKNTANIAKERLQIIVAERRRSDAEPHYLPQLRKDILEVICKYVQIDPEMVTVQLEQKDGDISILELNVTLPEAEELK
notes: MinE of the Escherichia coli Min system; A purification tag is probably present (surmise)
- binding result [4]: binds
